The values that follow come from US20170081400A1 (CEPHALON, published 2017).

Test [1] has as its target T1, human TL1A extracellular domain with N-terminal HIS and FLAG tag (human, UniProt O95150 72-251).
T1 construct: whole entry named. ~70 kDa fraction purified by gel filtration
T1 sequence: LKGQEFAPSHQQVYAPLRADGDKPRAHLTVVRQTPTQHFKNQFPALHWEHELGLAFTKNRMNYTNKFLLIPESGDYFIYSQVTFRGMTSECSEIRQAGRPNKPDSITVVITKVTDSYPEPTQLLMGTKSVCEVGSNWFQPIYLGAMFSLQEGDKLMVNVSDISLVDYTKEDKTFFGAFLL
The experiment in a line: SPR run 2; supernatant on Protein A; TL1A 10 ug/mL; timepoint 44. The method, boiled down:
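Biacore T200 SPR with antibody (supernatant or Protein A-purified) captured on Protein A amine-coupled to a CM5 chip; capture level recorded as response change at end of capture.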

For test [2], the target named is T1, human TL1A extracellular domain with …. The experiment in a line: SPR run 2; supernatant on Protein A; TL1A 10 ug/mL; timepoint 220. In outline: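 CM5 chip, amine-coupled Protein A; capture of supernatant or purified Ab (load varies per run); capture level = ΔRU at end of injection; binding RU read late in dissociation; double referencing (reference cell + buffer blank).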

For test [3], the target named is T2, human TL1A extracellular domain with N-terminal HIS and FLAG tag (human) (UniProt O95150).
T2 sequence: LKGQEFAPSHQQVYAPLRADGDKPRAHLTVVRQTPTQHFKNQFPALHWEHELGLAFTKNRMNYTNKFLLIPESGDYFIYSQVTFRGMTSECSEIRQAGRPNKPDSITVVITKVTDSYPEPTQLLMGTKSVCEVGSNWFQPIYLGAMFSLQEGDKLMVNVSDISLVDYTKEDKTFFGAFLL
The experiment in a line: cell-based or functional assay.

In test [4] the target is T1, human TL1A extracellular domain with …. Nature of the test: SPR run 2; purified antibody on Protein A; TL1A 10 ug/mL; timepoint 44. An excerpt: (§1) 1.5. Antibody expression and antigen binding as determined by SPR. Using a CM5 sensor chip (GE Healthcare) Protein A (Pierce) was coupled to the chip surface using an amine coupling kit (GE Healthcare). Protein A was coupled on flow cell 1 and 2 (or alternatively 3 and 4) using a BIACORE® T200. […] The amount of supernatant or purified protein (as well as the concentration) injected during the capture stage varied between runs and is specified in the header of the Tables 3-11. At the end of injection of the supernatant or purified antibody the change in response units was measured. This value was reported as Capture Level in Tables 3-11. […] The response units were measured prior to the end of the dissociation phase. […] The sensorgrams were double referenced (flow cell 2 is subtracted from flow cell 1 and a buffer blank). As there were a large number of antibody variants to screen, these were screened across different runs (Tables 3-11). […] A summary of the conditions used in each run is below:
(§2) 2.1. […] In some experiment the antibodies were purified using Protein A chromatography (See 1.4) and purified antibodies were used in BIACORE® (GE Healthcare) experiments.

For test [5] the target is unchanged. Nature of the test: SPR run 2; purified antibody on Protein A; TL1A 10 ug/mL; timepoint 590.
Excerpt: as §1, §2

The target of test [6] is T3, human TL1A extracellular domain with N-terminal HIS and FLAG tag (human, UniProt O95150 72-251).
T3 sequence: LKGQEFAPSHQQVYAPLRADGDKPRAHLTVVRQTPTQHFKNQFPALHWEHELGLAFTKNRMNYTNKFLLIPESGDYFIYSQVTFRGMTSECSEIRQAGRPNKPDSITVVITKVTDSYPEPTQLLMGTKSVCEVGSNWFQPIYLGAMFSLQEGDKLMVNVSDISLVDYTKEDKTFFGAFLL
Nature of the test: cell-based or functional assay.

The target in test [7] is T3, human TL1A extracellular domain with …. The experiment in a line: SPR Run 8, antibody on Protein A, TL1A 5 ug/mL, timepoint 44.
Excerpt: as §1, §2

Test [8] shares this target. The experiment in a line: SPR Run 8, antibody on Protein A, TL1A 5 ug/mL, timepoint 590.
Excerpt: as §1, §2

B1: 320-201 (antibody, human IgG1, name in Kabat numbering, V domains shown)
VH: QVQLVQSGAEVKKPGASVKVSCKASGYTFTSYDINWVRQAPGQGLEWMGWLNPNSGNTGYAQKFQGRVTMTADRSTSTAYMELSSLRSEDTAVYYCAREVPETAAFEYWGQGTLVTVSS
VL: QSVLTQPPSVSGAPGQRVTISCTASSSDIGAGLGVHWYQQLPGTAPKLLIEGYYNRPSGVPDRFSGSKSGTSASLTITGLLPEDEGDYYCQSYDGTLSALFGGGTKLTVLG
notes: human IgG1, lambda
With B1, the “TL1A Binding Level (Early)” value in test [1] stood at 274 RU; in test [4], 73 RU. In addition, the “TL1A Binding Level (Late)” value was 252 RU in test [2] and 57 RU in test [5]. Also, the Antibody IC50, TL1A induced caspase potency assay in TF-1 cells in test [3] stood at 5 ng/mL. For the same molecule, the Fold improvement over 320-179, TL1A induced caspase potency assay in TF-1 cells in test [3] amounted to 2 fold.

B2: 320-237 (antibody, human IgG1, name in Kabat numbering, V domains shown)
VH: QVQLVQSGAEVKKPGASVKVSCKASGYTFTSYDINWVRQAPGQGLEWMGWLNPNSGNTGYAQKFQGRVTMTADRSTSTAYMELSSLRSEDTAVYYCAREVPETAAFEYWGQGTLVTVSS
VL: QSVLTQPPSVSGAPGQRVTISCTSSSSKIGAGLGVHWYQQLPGTAPKLLIEGYYNRPSGVPDRFSGSKSGTSASLTITGLLPEDEGDYYCQSYDGTLSALFGGGTKLTVLG
notes: human IgG1, lambda
On to B2, for which the “TL1A Binding Level (Early)” value in test [1] came to 240 RU; in test [4] it was 10 RU. Also, the “TL1A Binding Level (Late)” value in test [2] was 221 RU; in test [5] it was 8 RU.

B3: 320-583 (antibody, human IgG1, name in Kabat numbering, V domains shown)
VH: QVQLVQSGAEVKKPGASVKVSCKASGYTFTSYDINWVRQAPGQGLEWMGWLNPNSGNTGYAQKFQGRVTMTADRSTSTAYMELSSLRSEDTAVYYCAREVPETAAFEYWGQGTLVTVSS
VL: QSVLTQPPSVSGAPGQRVTISCTSSSSDIGAALGVHWYQQLPGTAPKLLIEGYYNRPSGVPDRFSGSKSGTSASLTITGLLPEDEGDYYCQSWDGTLSALFGGGTKLTVLG
notes: full-length human IgG1, lambda
For B3, in test [6], the “Antibody IC50, TL1A induced caspase potency assay in TF-1 cells” value was found to be 3 ng/mL and the “Fold improvement over 320-179, TL1A induced caspase potency assay in TF-1 cells” value turned out to be 27 fold. Besides, the “TL1A Binding Level (Early)” value in test [7] is 108 RU. In addition, the “TL1A Binding Level (Late)” value in test [8] stood at 103 RU.

B4: 320-233 (antibody, human IgG1, name in Kabat numbering, V domains shown)
VH: QVQLVQSGAEVKKPGASVKVSCKASGYTFTSYDINWVRQAPGQGLEWMGWLNPNSGNTGYAQKFQGRVTMTADRSTSTAYMELSSLRSEDTAVYYCAREVPETAAFEYWGQGTLVTVSS
VL: QSVLTQPPSVSGAPGQRVTISCTSSSSAIGAGLGVHWYQQLPGTAPKLLIEGYYNRPSGVPDRFSGSKSGTSASLTITGLLPEDEGDYYCQSYDGTLSALFGGGTKLTVLG
notes: human IgG1, lambda
With B4, the “TL1A Binding Level (Early)” value in test [1] is 255 RU; in test [4] it was 48 RU. Besides, the “TL1A Binding Level (Late)” value in test [2] is 235 RU; in test [5], 16 RU.

B5: 320-221 (antibody, human IgG1, name in Kabat numbering, V domains shown)
VH: QVQLVQSGAEVKKPGASVKVSCKASGYTFTSYDINWVRQAPGQGLEWMGWLNPNSGNTGYAQKFQGRVTMTADRSTSTAYMELSSLRSEDTAVYYCAREVPETAAFEYWGQGTLVTVSS
VL: QSVLTQPPSVSGAPGQRVTISCTSSKSDIGAGLGVHWYQQLPGTAPKLLIEGYYNRPSGVPDRFSGSKSGTSASLTITGLLPEDEGDYYCQSYDGTLSALFGGGTKLTVLG
notes: human IgG1, lambda
Consider B5, for which the “TL1A Binding Level (Early)” value in test [1] amounted to 225 RU; in test [4], 99 RU. Also, the “TL1A Binding Level (Late)” value in test [2] was found to be 207 RU; in test [5] it was 89 RU.

B6: 320-584 (antibody, human IgG1, name in Kabat numbering, V domains shown)
VH: QVQLVQSGAEVKKPGASVKVSCKASGYTFTSYDINWVRQAPGQGLEWMGWLNPNSGNTGYAQKFQGRVTMTADRSTSTAYMELSSLRSEDTAVYYCAREVPETAAFEYWGQGTLVTVSS
VL: QSVLTQPPSVSGAPGQRVTISCTSSSSDIGAGSGVHWYQQLPGTAPKLLIEGYYNRPSGVPDRFSGSKSGTSASLTITGLLPEDEGDYYCQSWDGTLSALFGGGTKLTVLG
notes: as for B3
For the molecule B6, in test [6], the “Antibody IC50, TL1A induced caspase potency assay in TF-1 cells” value was 8 ng/mL and the “Fold improvement over 320-179, TL1A induced caspase potency assay in TF-1 cells” value worked out at 10 fold. Moreover, the “TL1A Binding Level (Early)” value in test [7] is 103 RU. Also, the “TL1A Binding Level (Late)” value in test [8] was determined as 98 RU.

B7: 320-218 (antibody, human IgG1, name in Kabat numbering, V domains shown)
VH: QVQLVQSGAEVKKPGASVKVSCKASGYTFTSYDINWVRQAPGQGLEWMGWLNPNSGNTGYAQKFQGRVTMTADRSTSTAYMELSSLRSEDTAVYYCAREVPETAAFEYWGQGTLVTVSS
VL: QSVLTQPPSVSGAPGQRVTISCTSSQSDIGAGLGVHWYQQLPGTAPKLLIEGYYNRPSGVPDRFSGSKSGTSASLTITGLLPEDEGDYYCQSYDGTLSALFGGGTKLTVLG
notes: human IgG1, lambda
Consider B7, for which the “TL1A Binding Level (Early)” value in test [1] turned out to be 239 RU; in test [4], 92 RU. Further, the “TL1A Binding Level (Late)” value worked out at 218 RU in test [2] and 80 RU in test [5].

B8: 320-211 (antibody, human IgG1, name in Kabat numbering, V domains shown)
VH: QVQLVQSGAEVKKPGASVKVSCKASGYTFTSYDINWVRQAPGQGLEWMGWLNPNSGNTGYAQKFQGRVTMTADRSTSTAYMELSSLRSEDTAVYYCAREVPETAAFEYWGQGTLVTVSS
VL: QSVLTQPPSVSGAPGQRVTISCTSDSSDIGAGLGVHWYQQLPGTAPKLLIEGYYNRPSGVPDRFSGSKSGTSASLTITGLLPEDEGDYYCQSYDGTLSALFGGGTKLTVLG
notes: human IgG1, lambda
For B8, the “TL1A Binding Level (Early)” value was 206 RU in test [1] and 80 RU in test [4]. The “TL1A Binding Level (Late)” value in test [2] was 164 RU; in test [5], 64 RU. The same molecule registered an Antibody IC50, TL1A induced caspase potency assay in TF-1 cells in test [3] of 10 ng/mL. In test [3], this molecule gave a Fold improvement over 320-179, TL1A induced caspase potency assay in TF-1 cells of 3 fold.

B9: 320-213 (antibody, human IgG1, name in Kabat numbering, V domains shown)
VH: QVQLVQSGAEVKKPGASVKVSCKASGYTFTSYDINWVRQAPGQGLEWMGWLNPNSGNTGYAQKFQGRVTMTADRSTSTAYMELSSLRSEDTAVYYCAREVPETAAFEYWGQGTLVTVSS
VL: QSVLTQPPSVSGAPGQRVTISCTSKSSDIGAGLGVHWYQQLPGTAPKLLIEGYYNRPSGVPDRFSGSKSGTSASLTITGLLPEDEGDYYCQSYDGTLSALFGGGTKLTVLG
notes: human IgG1, lambda
B9: the entries for the “TL1A Binding Level (Early)” value in test [1] and in test [4] were 218 RU and 79 RU, respectively. Further, the “TL1A Binding Level (Late)” value in test [2] amounted to 194 RU; in test [5], 65 RU. In test [3], this molecule had an Antibody IC50, TL1A induced caspase potency assay in TF-1 cells of 70 ng/mL. Besides, the Fold improvement over 320-179, TL1A induced caspase potency assay in TF-1 cells in test [3] stood at 0 fold.

B10: 320-236 (antibody, human IgG1, name in Kabat numbering, V domains shown)
VH: QVQLVQSGAEVKKPGASVKVSCKASGYTFTSYDINWVRQAPGQGLEWMGWLNPNSGNTGYAQKFQGRVTMTADRSTSTAYMELSSLRSEDTAVYYCAREVPETAAFEYWGQGTLVTVSS
VL: QSVLTQPPSVSGAPGQRVTISCTSSSSHIGAGLGVHWYQQLPGTAPKLLIEGYYNRPSGVPDRFSGSKSGTSASLTITGLLPEDEGDYYCQSYDGTLSALFGGGTKLTVLG
notes: human IgG1, lambda
As for B10, the results for the “TL1A Binding Level (Early)” value in test [1] and in test [4] were 254 RU and 5 RU, respectively. In addition, the “TL1A Binding Level (Late)” value worked out at 232 RU in test [2] and 6 RU in test [5].

B11: 320-205 (antibody, human IgG1, name in Kabat numbering, V domains shown)
VH: QVQLVQSGAEVKKPGASVKVSCKASGYTFTSYDINWVRQAPGQGLEWMGWLNPNSGNTGYAQKFQGRVTMTADRSTSTAYMELSSLRSEDTAVYYCAREVPETAAFEYWGQGTLVTVSS
VL: QSVLTQPPSVSGAPGQRVTISCTKSSSDIGAGLGVHWYQQLPGTAPKLLIEGYYNRPSGVPDRFSGSKSGTSASLTITGLLPEDEGDYYCQSYDGTLSALFGGGTKLTVLG
notes: human IgG1, lambda
With B11, the entries for the “TL1A Binding Level (Early)” value in test [1] and in test [4] were 290 RU and 70 RU, respectively. In addition, the “TL1A Binding Level (Late)” value in test [2] amounted to 271 RU; in test [5] it was 51 RU. In test [3], this molecule had an Antibody IC50, TL1A induced caspase potency assay in TF-1 cells of 20 ng/mL. In test [3], the Fold improvement over 320-179, TL1A induced caspase potency assay in TF-1 cells was determined as 2 fold.
